Test results as given in paper doi:10.1101/2024.10.02.616235, “Mechanism of DNA entrapment by the MukBEF SMC complex and its inhibition by a viral DNA mimic” (bioRxiv, 2024).

Experiments:
[1] = biological target: the molecule itself; assay: cryo-EM structure; E. coli MukEF 1 μM mixed with 4 μM gp5.9 in 20 mM Tris, 200 mM NaCl, 0.5 mM TCEP, 0.05 % β-octyl glucoside, pH 7.4, on ice
[2] = biological target: the molecule itself; assay: cryo-EM structure; wild-type P. thracensis MukBEF dimers 150 nM with nicked plasmid pFB526 and 5 mM ATP, 10 mM MgCl2, pH 7.0, optionally with Na3VO4 or BeSO4/NaF; datasets pooled

Protein	stoichiometry N [1]	stoichiometry N [2]
T7 gp5.9, purified from insect cells (natural protein, bacteriophage T7, bacteriophage T7 gp5.9; histidine tag removed with 3C protease; Used as 'gp5.9 dimers' in SEC; source: Hi5 insect cells, purified (Talon, 3C cleavage, HisTrap, MonoQ)) MSRDLVTIPRDVWNDIQGYIDSLERENDSLKNQLMEADEYVAELEEKLNGTS	2	–
P. thracensis MukE as subunit of wild-type MukBEF (natural protein, Photorhabdus thracensis, Photorhabdus thracensis MukE; the MukE chain of m14; source: E. coli BL21-Gold(DE3), co-expressed as MukBEF from pFB403, purified) MSSTHIEQFMPVKLAQALANSLFPELDSQLRAGRHIGIDDLDNHAFLMDFQEQLEEFYARYNVELIRAPEGFFYLRPRSTTLIPRSVLSELDMMVGKILCYLYLSPERLANQGIFTSQELYEELISLADEGKLMKFVNQRSSGSDLDKQKLQEKVRTTLNRLRRLGMVYFLPNNNNKFTITEAVFRFGADVRSGDDPREIQLRMIRDGEAMPVEGSLSLDDSENDETPDNSAEGAGDEQP	–	2
